# B1: MB5/C′3 scFv antibody, soluble form (scFv)
# scFv: RTMEQVQLVQSGAEVKKPGASVKVSCKASGYTFTASYMHWVRQAPGQGLEWMGWFNPNSGGTNYAQKFQGRVTMTGDTSTSTGYMELSRLTSDDAAVYYCARDRASAMGVWGQGTLVTVSSGGGGSGGGGSGGGGSQSALTQPASVSGSPGQSITISCTGTSSDVGGYNYVSWYQQHPGKAPKLMIYDVTNRPSGVSSRFSGSKSGNTASLTISGLQTEDEADYYCNSFTSSNTYVFGTGTQLTVLGAA
# notes: domain: first two amino acids of the mature AP protein; cloned in pKM16 and produced in soluble form; not shown: FLAG/His-tail at the carboxyl-terminus (pKM16)
# B2: CB37/3B scFv antibody, soluble form (scFv)
# scFv: RTMEEVQLVQSGGGLIQPGGSLRLSCVASEFNVRSNYMSWVRQAPGKGLEWVSVMYDGGSTYYADSVKGRFTISRDNSKNTVYLQMNSLRAEDTAVYYCARGGLGLPTIAPWEIWGQGTMVTVSSGGGGSGGGGSGGGGSSYVLTQPPSVSVAPGKTATITCAGNNIGSNSVYWYQQKPGLAPVLVVYDDRDRPSGIHERFSGSKSGNTATLTISRVEAGDEADYSCQVWDPSSDHLYVFGTGTQLTVLGAA
# notes: domain: first two amino acids of the mature AP protein; not shown: FLAG/His-tail at the carboxyl-terminus (pKM16)
# B3: CB37/9C scFv antibody, soluble form (scFv)
# scFv: RTMEEVQLVQSGGGLIQPGGSLRLSCVASEFNVRSNYMSWVRQAPGKGLEWVSVMYDGGSTYYADSVKGRFTISRDNSKNTVYLQMNSLRAEDTAVYYCARGGLGLPTIASWEIWGQGTMVTVSSGGGGSGGGGSGGGGSSYVLTQPPSVSVAPGKTATITCAGNNIGSNSVYWYQQKPGLAPVLVVYDDRDRPSGLPGRFSGSKSGNTATLTISRVEAGDEADYSCQVWDPSSDHLYVFGTGTQLTVLGAA
# notes: as for B1
# B4: MB5/C′1 scFv antibody, soluble form (scFv)
# scFv: RTMEEVQLQESGAEVKKPGASVKVSCKASGYTFTASYMHWVRQAPGQGLEWMGWFNPNSGGTNYAQKFQGRVTMTGDTSTSTGYMELSRLTSDDAAVYYCARDRASAMGVWGQGTLVTVSSGGGGSGGGGSGGGGSQSALTQPASVSGSPGQSITISCTGTSSDVGGYNYVSWYQQHPGKAPKLMIYDVSHRPSGISNRFSGSKSGNTASLTISRLQAEDEADYYCSSYTSSNTFIFGTGTQLTVLGAA
# notes: domain: first two amino acids of the mature AP protein; cloned in pKM16 and produced in soluble form; also called MBB5/C′1; not shown: FLAG/His-tail at the carboxyl-terminus (pKM16)
# Key:
# [1] = molecular target: T1, GST-fused MUC1 recombinant protein, containing a 107-aa MUC1 sequence, containing 5.3 repeats (UniProt P08515 1-218 = GST; P15941 126-232); assay: Surface Plasmon Resonance (Biacore), soluble scFv
# T1 construct: Biotinylated for the selections; also called Recombinant MUC1 protein; MUC1 tumor antigen
# [2] = molecular target: T2, Human CEA protein, purified from colon carcinoma and liver metastases (human, UniProt P06731 35-685, limits assumed); assay: Surface Plasmon Resonance (Biacore), soluble scFv
# T2 construct: Bought; Biotinylated for the selections; also called carcino-embryonic antigen
# T2 sequence (looked up): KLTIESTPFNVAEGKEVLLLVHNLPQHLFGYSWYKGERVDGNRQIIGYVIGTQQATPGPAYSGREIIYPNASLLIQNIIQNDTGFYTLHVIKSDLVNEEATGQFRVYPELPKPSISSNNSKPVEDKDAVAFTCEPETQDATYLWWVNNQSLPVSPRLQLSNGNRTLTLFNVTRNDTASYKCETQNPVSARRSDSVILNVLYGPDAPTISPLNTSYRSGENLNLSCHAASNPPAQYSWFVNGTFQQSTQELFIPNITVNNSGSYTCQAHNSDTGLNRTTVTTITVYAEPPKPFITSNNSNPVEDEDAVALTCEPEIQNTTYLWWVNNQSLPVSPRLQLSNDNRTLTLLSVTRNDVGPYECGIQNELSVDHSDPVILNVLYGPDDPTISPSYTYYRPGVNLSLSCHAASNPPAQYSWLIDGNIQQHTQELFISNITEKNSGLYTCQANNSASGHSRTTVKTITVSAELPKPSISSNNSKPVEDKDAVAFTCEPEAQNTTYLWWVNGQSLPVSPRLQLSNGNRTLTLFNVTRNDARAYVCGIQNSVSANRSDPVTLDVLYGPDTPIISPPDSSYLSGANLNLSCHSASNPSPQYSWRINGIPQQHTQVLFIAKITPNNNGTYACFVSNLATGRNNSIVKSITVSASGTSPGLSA
Binder,Kd [1],Kd [2]
B1,23.1 nM,–
B2,–,3.66 nM
B3,–,1.42 nM
B4,9.46 nM,–
